T1: Retinoic acid receptor alpha (RARα), in CV-1 cells (Homo sapiens, UniProt P10276 P10276:1-462)
T1 sequence: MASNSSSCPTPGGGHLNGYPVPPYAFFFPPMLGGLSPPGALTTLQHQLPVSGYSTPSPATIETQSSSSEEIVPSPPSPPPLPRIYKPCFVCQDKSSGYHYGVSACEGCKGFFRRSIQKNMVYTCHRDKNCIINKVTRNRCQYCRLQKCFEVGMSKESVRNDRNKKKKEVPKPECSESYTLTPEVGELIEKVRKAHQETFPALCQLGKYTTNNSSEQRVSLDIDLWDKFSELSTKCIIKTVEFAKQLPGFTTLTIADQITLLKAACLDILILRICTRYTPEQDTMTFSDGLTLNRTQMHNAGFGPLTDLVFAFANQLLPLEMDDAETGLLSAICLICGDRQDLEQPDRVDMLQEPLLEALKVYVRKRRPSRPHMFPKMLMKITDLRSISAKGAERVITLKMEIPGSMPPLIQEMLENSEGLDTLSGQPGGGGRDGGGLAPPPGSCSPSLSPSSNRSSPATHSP

T2: Thyroid hormone receptor beta (TRβ), in CV-1 cells (Homo sapiens, UniProt P10828 P10828:1-461)
T2 sequence: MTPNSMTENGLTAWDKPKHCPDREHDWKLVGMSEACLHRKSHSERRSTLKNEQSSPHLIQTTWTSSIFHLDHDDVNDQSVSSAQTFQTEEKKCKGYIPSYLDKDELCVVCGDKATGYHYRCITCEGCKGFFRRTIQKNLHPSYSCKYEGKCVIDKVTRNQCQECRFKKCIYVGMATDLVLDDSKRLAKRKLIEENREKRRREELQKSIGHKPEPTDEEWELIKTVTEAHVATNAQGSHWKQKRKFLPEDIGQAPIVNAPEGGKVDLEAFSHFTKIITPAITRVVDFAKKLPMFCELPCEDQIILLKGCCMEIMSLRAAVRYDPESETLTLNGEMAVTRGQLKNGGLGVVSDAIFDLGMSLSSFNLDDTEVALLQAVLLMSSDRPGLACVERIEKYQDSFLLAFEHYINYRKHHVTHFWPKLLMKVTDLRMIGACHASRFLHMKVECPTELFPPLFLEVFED


Tests used:
[1] = molecular target: T1, Retinoic acid receptor alpha (RARα), in …; assay: cell_activity; RA 1 µM, CV-1; settings: tags: RSV or pRS expression vector; 5'-agct overhangs
Experimental: (§1) For cotransfection assays, a monkey kidney cell line CV-1 was kept in Dulbecco's modified Eagle's medium (DMEM) supplemented with 10% charcoal-resin double split calf bovine serum. Transfections were performed via calcium-phosphate precipitation method as described by Umesono, et al. in Cell 57: 1139–1146 (1989), with 0.5 μg of a pRS receptor expression plasmid, 1.0 μg of a reporter CAT plasmid, 5 μg of pRAS-βGAL [Umesono, et al., Cell 57: 1139–1146 (1989)] as an internal control, and 8.5 μg of carrier plasmid pUC19. The cells were transfected for 8 hours; after washing the DNA precipitates, the cells were then incubated for an additional 36 hours with or without the ligand (T_3, 100 nM; RA, 1 μM; 1,25-(OH)_2 vitamin D_3, 100 nM). Cell extracts were prepared for βGAL and CAT assays, as described by Umesono, et al., supra. Transfection of F9 teratocarcinoma cells was carried out employing a similar method except the cells were incubated for 12 hours in the presence of the DNA precipitates, and the RA was added at 1 μM for another 24 hours before harvesting the cells. 2, 5, and 4 μg of the reporter, pRAS-βGAL, and pUC19 were used, respectively.
(§2) Starting from the MHC-TRE (MHC-N), a set of oligonucleotides (see FIG. 4a) were designed to introduce variations in the half-site spacing (MCH+1), the half-site sequence (MHC-T), or both (MHC-R). A single copy of these oligonucleotides was placed in the basal reporter construct ΔSV-CAT (designated by "(−)" in FIG. 4b), giving rise to a set of CAT reporter plasmids together with one encoding TREp. Parallel cotransfections with expression plasmids for TRβ or RARα were performed in CV-1 cells along with the ΔSV-CAT reporter containing a single copy of the variant HRE. After addition of hormone (RA, 1 μM; T_3, 100 nM), the cell extracts were assayed for the CAT activity by […] the β-galactosidase activity produced by cotransfected pRAS-βGAL. In the figure, numbers in the columns indicate the level of induction of CAT activity by the hormone.

[2] = molecular target: T2, Thyroid hormone receptor beta (TRβ), in …; assay: cell_activity; T3 100 nM, CV-1; settings: tags: pRShTRβ, 5'-agct overhangs
Experimental: as §1, §2

Row | Binder | activity [1] [fold induction] | activity [2] [fold induction] | activity ([2]; label: 32P) [fold induction]
1 | TREp (dsDNA) DNA 1: AGCTTCAGGTCATGACCTGAGAGCT DNA 2: AGCTCTCAGGTCATGACCTGAAGCT | 9 | 14 | 
2 | MHC-T (dsDNA) DNA 1: AGCTGGAGGTGACAGGAGGTCAGCAAGCT DNA 2: AGCTTGCTGACCTCCTGTCACCTCCAGCT | 2.6 | 15 | 
3 | MHC-N (dsDNA) DNA 1: AGCTGGAGGTGACAGGAGGACAGCAAGCT DNA 2: AGCTTGCTGTCCTCCTGTCACCTCCAGCT |  |  | 10
4 | MHC+1 (dsDNA) DNA 1: AGCTGGAGGTGAACAGGAGGACAGCAAGCT DNA 2: AGCTTGCTGTCCTCCTGTTCACCTCCAGCT | 4 | < 2 | 
5 | MHC-R (dsDNA) DNA 1: AGCTGGAGGTGAACAGGAGGTCAGCAAGCT DNA 2: AGCTTGCTGACCTCCTGTTCACCTCCAGCT | 7.4 |  | 

— patent publication US6492137B1, “Response element compositions and assays employing same” (The Salk Institute for Biological Studies, priority 1989, dated 2002)
